Positions count from the first letter of the chain named. Names may count otherwise. “And” between values parts separate entries of the source, which are not always exact repeats. Equal entries are not always repeated.
Key:
[1] = target: At-His-cpSRP43, fluorescently labeled (Arabidopsis thaliana) (UniProt O22265); experiment: MST; labeled cpSRP43 (20 nM) or eGFP-Cg-43 (75 nM) constant, cpSRP54 constructs titrated; 300 mM NaCl, 2.7 mM KCl, 10 mM Na2HPO4, 1.8 mM K2HPO4, 5 mM MgCl2, 2 mM DTT, 0.05% Tween20, pH 7.3; Monolith NT.115, MST power 20%, LED power 20%
[2] = target: Cg-His-eGFP-cpSRP43 (Chaetosphaeridium globosum); experiment: as above
[3] = target: Chaetosphaeridium globosum cpSRP43(D189Y) (Chaetosphaeridium globosum); experiment: as above
[4] = system: Pp-cpSRP54-His (Physcomitrella patens); experiment: MST; settings: 5 mM Mg2+, MST: 300 mM NaCl, 2.7 mM KCl, 10 mM Na2HPO4, 1.8 mM K2HPO4, 5 mM MgCl2, 2 mM DTT, 0.05% Tween20, pH 7.3, labeled Pp-cpSRP54 10-20 nM, temperature not stated …
[5] = target: Pp-His-cpSRP43, fluorescently labeled (Physcomitrella patens); experiment: MST; labeled cpSRP43 (20 nM) or eGFP-Cg-43 (75 nM) constant, cpSRP54 constructs titrated; 300 mM NaCl, 2.7 mM KCl, 10 mM Na2HPO4, 1.8 mM K2HPO4, 5 mM MgCl2, 2 mM DTT, 0.05% Tween20, pH 7.3; Monolith NT.115, MST power 20%, LED power 20%
[6] = target: T1, At-His-cpSRP54 (Arabidopsis thaliana, UniProt P37107 76-564); experiment: as above; settings: both partners purified
T1 construct: cpSRP54 of Arabidopsis thaliana; the results call it 'full-length' as against the M-domain; also called At-His-54; At-54; source: E. coli BL21(DE3) or Rosetta2(DE3), purified (Ni-NTA, desalted); not shown: His tag, N-terminal, kept
T1 sequence (looked up): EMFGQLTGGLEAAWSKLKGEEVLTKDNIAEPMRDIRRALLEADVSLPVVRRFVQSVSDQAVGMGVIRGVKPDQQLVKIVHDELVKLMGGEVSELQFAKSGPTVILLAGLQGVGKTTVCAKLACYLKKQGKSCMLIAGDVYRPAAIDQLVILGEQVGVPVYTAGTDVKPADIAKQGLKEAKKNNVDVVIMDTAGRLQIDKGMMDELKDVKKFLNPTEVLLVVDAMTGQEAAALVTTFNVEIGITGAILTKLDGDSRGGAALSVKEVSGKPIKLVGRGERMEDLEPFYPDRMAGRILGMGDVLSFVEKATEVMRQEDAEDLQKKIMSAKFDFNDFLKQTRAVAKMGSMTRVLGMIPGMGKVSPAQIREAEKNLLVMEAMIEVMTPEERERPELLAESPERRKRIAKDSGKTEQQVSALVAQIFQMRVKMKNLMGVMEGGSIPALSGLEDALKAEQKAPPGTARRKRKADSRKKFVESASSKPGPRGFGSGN

[7] = target: T1, At-His-cpSRP54; experiment: pull-down; GST-cpSRP43 constructs on glutathione-sepharose, 20 μg of GST- and His-fusion constructs; eluates by SDS-PAGE and Coomassie staining; settings: both partners purified

At-His-cpSRP54M (domain or fragment)
Kd [1]: 60 nM and 90 nM

Cg-His-cpSRP54M (domain or fragment)
Kd [2]: 11000 nM | Kd [3]: 10000 nM and 11000 nM

Ec-SRP RNA
Kd ([4]; one of two replicate values): 17 nM and 27 nM

Ot-cpSRP RNA
Kd [4]: 185 nM

Pp-cpSRP54-His (natural protein)
Kd [5]: 9000 nM

Pp-cpSRP RNA
Kd [4]: 1300 nM

B1: At-His-cpSRP43, fluorescently labeled (natural protein, Arabidopsis thaliana, UniProt O22265 57-373, looked up)
chain: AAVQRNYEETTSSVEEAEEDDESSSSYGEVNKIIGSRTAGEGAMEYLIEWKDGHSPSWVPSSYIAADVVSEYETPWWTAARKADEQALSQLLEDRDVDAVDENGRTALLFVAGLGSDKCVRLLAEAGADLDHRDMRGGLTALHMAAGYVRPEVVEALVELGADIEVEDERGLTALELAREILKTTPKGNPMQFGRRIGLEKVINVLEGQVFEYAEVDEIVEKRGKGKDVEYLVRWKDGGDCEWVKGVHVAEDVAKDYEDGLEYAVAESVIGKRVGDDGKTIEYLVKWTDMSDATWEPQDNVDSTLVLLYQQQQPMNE
modifications: fluorescent label on amines (Monolith NT.115 Protein Labeling Kit RED-NHS)
notes: cpSRP43 of Arabidopsis thaliana; the results speak of the 'full-length Arabidopsis thaliana cpSRP subunits'; the construct is not described among the plasmids; also called Ath-His-cpSRP43; At-43; source: E. coli BL21(DE3) or Rosetta2(DE3), purified (Ni-NTA, desalted); not shown: His tag, N-terminal, kept
Kd [6]: 50 nM and 60 nM

B2: At-GST-cpSRP43 (natural protein, Arabidopsis thaliana, UniProt O22265 57-373, looked up)
chain: B1 chain
notes: cpSRP43 of Arabidopsis thaliana in pGEX4T3; also called At-GST-43; GST-cpSRP43 from Arabidopsis thaliana; source: E. coli BL21(DE3) or Rosetta2(DE3), purified (glutathione-sepharose); not shown: GST, N-terminal, kept
binding result [7]: binds

B3: At-GST-cpSRP43(Y269D) (natural protein, Arabidopsis thaliana, UniProt O22265 57-373, looked up)
chain: B1 chain with Y213D
notes: cpSRP43 of Arabidopsis thaliana in pGEX4T3, with Y269D; made from the construct of m9; also called pGEX4T3-At-GST-cpSRP43(Y269D); source: E. coli BL21(DE3) or Rosetta2(DE3), purified (glutathione-sepharose); not shown: GST, N-terminal, kept
binding result [7]: binds

B4: At-GST-cpSRP43(Y269E) (natural protein, Arabidopsis thaliana, UniProt O22265 57-373, looked up)
chain: B1 chain with Y213E
notes: cpSRP43 of Arabidopsis thaliana in pGEX4T3, with Y269E; made from the construct of m9; also called pGEX4T3-At-GST-cpSRP43(Y269E); source: E. coli BL21(DE3) or Rosetta2(DE3), purified (glutathione-sepharose); not shown: GST, N-terminal, kept
binding result [7]: binds
